Reference: publication PMC5689087 (Structure (London, England : 1993), 2017)
Where no end group is shown, it is not given here. The star is where a group is joined. FITC = O=C1OC2(c3ccc(O)cc3Oc3cc(O)ccc32)c2ccc(NC(=S)*)cc21

Columns and labels:
[1] = molecular target: human αVβ3 integrin ectodomain (purchased, lyophilized) (human, UniProt P06756 31-992; P05106 27-718); test: SEC
[2] = molecular target: human αVβ3 integrin ectodomain (purchased, lyophilized) (human, UniProt P06756;P05106); test: SPR
Chain of human αVβ3 integrin ectodomain (purchased, lyophilized) (human, UniProt P06756;P05106) (P06756 31-992, chain 1 of 2): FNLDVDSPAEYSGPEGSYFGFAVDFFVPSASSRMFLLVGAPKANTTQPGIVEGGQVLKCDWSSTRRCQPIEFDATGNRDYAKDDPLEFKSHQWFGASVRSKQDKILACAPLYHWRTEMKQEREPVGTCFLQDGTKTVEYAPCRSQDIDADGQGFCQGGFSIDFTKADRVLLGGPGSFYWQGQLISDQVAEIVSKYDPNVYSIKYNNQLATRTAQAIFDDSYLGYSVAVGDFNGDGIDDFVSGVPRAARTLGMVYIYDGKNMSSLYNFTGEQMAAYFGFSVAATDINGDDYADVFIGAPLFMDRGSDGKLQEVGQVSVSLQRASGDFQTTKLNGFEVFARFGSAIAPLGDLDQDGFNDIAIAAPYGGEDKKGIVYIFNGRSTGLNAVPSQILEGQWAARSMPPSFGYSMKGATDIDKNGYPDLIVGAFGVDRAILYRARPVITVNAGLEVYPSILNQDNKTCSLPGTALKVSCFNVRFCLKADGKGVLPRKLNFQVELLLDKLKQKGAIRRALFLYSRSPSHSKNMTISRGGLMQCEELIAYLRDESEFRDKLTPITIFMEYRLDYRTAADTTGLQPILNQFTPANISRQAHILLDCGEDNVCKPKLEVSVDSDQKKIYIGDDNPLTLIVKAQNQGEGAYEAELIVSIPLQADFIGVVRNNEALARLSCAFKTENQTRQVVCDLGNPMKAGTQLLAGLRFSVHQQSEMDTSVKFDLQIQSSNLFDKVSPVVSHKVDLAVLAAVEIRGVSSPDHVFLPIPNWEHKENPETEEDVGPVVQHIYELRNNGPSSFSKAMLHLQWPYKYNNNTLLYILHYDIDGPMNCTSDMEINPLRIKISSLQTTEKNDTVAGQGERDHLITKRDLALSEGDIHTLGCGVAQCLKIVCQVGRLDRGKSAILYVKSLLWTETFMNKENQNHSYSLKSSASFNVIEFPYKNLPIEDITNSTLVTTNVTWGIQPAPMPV
Chain of human αVβ3 integrin ectodomain (purchased, lyophilized) (human, UniProt P06756;P05106) (P05106 27-718, chain 2 of 2): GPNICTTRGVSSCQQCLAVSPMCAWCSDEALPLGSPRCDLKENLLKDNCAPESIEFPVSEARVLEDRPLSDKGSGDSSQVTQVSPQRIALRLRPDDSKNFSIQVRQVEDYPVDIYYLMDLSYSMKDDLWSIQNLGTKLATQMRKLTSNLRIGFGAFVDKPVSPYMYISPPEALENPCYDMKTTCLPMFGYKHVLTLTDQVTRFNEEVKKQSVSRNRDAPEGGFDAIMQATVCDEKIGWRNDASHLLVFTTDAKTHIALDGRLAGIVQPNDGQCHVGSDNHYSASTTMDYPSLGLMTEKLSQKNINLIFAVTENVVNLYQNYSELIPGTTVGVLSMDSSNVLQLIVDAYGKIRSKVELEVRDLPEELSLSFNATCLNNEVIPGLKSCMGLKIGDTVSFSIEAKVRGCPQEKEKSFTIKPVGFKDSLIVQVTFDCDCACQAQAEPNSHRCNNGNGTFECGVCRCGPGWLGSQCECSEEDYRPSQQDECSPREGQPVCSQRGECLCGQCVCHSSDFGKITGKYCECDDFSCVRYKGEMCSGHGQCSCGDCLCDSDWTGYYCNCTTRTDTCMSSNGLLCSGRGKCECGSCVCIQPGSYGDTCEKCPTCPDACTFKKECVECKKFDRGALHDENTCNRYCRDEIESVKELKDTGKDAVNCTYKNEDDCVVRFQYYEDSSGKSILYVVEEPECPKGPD

Chain of human αVβ3 integrin ectodomain (purchased, lyophilized) (human, UniProt P06756 31-992; P05106 27-718) (P06756 31-992, chain 1 of 2): as the sequence (P06756 31-992, chain 1 of 2) above
Chain of human αVβ3 integrin ectodomain (purchased, lyophilized) (human, UniProt P06756 31-992; P05106 27-718) (P05106 27-718, chain 2 of 2): as the sequence (P05106 27-718, chain 2 of 2) above

binding result [1] | Kd [2] | koff [2] | kon [2] | Binder
binds | – | – | – | {FITC}-GRGDSPK [FITC-GRGDSPK peptide]
– | 23 nM | 0.0034 s⁻¹ | 150000 M⁻¹ s⁻¹ | Fab LM609 (recombinant antigen-binding fragment of the mouse monoclonal antibody LM609) (Fab, V domains shown) VH: EVQLEESGGGLVKPGGSLKLSCAASGFAFSSYDMSWVRQIPEKRLEWVAKVSSGGGSTYYLDTVQGRFTISRDNAKNTLYLQMSSLNSEDTAMYYCARHNYGSFAYWGQGTLVTVSA VL: ELVMTQTPATLSVTPGDSVSLSCRASQSISNHLHWYQQKSHESPRLLIKYASQSISGIPSRFSGSGSGTDFTLSINSVETEDFGMYFCQQSNSWPHTFGGGTKLEIK
